Results on 2 compounds are retold here after US20230190887A1, “TARGETING G3BP AGGREGATION TO PREVENT NEURODEGENERATION” (priority 2019, published 2023).

The subject of assay [1] is NMJs in co-cultures with puromycin-resistant muscles. In words: NMJ function after local protein synthesis inhibition. It counts as cell-based, mouse. The following applies: Puromycin 100 μg/mL exclusively in NMJ compartment, 16 h. As for the experimental part: Analysis of NMJ function following protein synthesis inhibition with puromycin was performed by co-culturing WT MNs with primary muscles transfected with empty […]-mCherry vectors expressing PAC gene for puromycin resistance. After 12 days in co-culture, once cultures matured and NMJ were formed, Puromycin (100 μg/mL) was added exclusively to the distal (NMJ) compartment for 16 h. The proximal compartment was kept with higher volume of medium for allowing puromycin to act only locally within the NMJ compartment. After 16 h, cultures were labeled with OGB, and the calcium activity of axons and muscles was recorded. Analysis of the percent of muscles with calcium transients in co-culture, was performed on muscles with at least one overlapping axon. Only muscles that expressed mCherry (as a reporter for the expression of PAC) were used for this analysis. OGB lyophilized stock (Life technologies) was resuspended with 20% (w/v) Pluronic acid for a stock concentration of 3 mM Stock was diluted 1:1,000 in the appropriate medium. OGB was incubated with cultures for […] in 37° C., 5% CO2 incubator, and then washed 3 times with culture medium prior imaging. Calcium transients in axons and muscles were recorded in a spinning disk confocal microscope equipped with an EMCCD camera with ×40 oil objective using 488 nm laser. Image sequences of 1,000 frames were acquired at frame rate of 25 FPS. […]

The target of assay [2] is HuR (ELAVL1), endogenous rat protein in axons of cultured adult DRG neurons (rat) (UniProt B5DF91). The experiment in a line: proximity ligation assay in axons of fixed rat DRG neurons.
Assay [3] addresses DCP1A, endogenous rat protein in axons of cultured adult DRG neurons (rat) (UniProt D4AE80). The description is as above.

Sequence of HuR (ELAVL1), endogenous rat protein in axons of cultured adult DRG neurons (rat) (B5DF91 2-326): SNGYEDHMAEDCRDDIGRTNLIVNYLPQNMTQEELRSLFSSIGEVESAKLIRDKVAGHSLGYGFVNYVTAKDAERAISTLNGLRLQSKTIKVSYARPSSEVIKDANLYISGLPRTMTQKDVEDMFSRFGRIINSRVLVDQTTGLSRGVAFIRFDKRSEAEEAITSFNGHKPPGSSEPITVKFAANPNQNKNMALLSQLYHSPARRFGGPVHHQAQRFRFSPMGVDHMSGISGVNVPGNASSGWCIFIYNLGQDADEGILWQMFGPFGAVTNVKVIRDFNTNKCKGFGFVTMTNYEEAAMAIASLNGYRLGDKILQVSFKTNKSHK

In the case of `COc1ccc(C[C@H](N)C(=O)N[C@H]2[C@@H](O)[C@H](n3cnc4c(N(C)C)ncnc43)O[C@@H]2CO)cc1` [puromycin, Puromycin], the “active (innervated and contracting) muscles, calcium transients” value in assay [1] is on record as “pronounced decrease in active muscles”. Consider “G3BP1 (Ras GAP SH3 domain binding protein 1), endogenous rat protein in axons of cultured adult DRG neurons (from UniProt D3ZYS7 1-465)”, for which the PLA signals per area in assay [2] is 0.038; in assay [3], 0.027 signals/m^2.
